The results in this text go back to paper doi:10.1101/2020.10.06.326603 (bioRxiv, 2020).

B1: IscS S10H, H247P, Q248L variant (enzyme, E. coli)
chain: MKLPIYLDYHATTPVDPRVAEKMMQFMTMDGTFGNPASRSHRFGWQAEEAVDIARNQIADLVGADPREIVFTSGATESDNLAIKGAANFYQKKGKHIITSKTEHKAVLDTCRQLEREGFEVTYLAPQRNGIIDLKELEAAMRDDTILVSIMHVNNEIGVVQDIAAIGEMCRARGIIYHVDATQSVGKLPIDLSQLKVDLMSFSGHKIYGPKGIGALYVRRKPRVRIEAQMHGGGHERGMRSGTLPVPLIVGMGEAYRIAKEEMATEMERLRGLRNRLWNGIKDIEEVYLNGDLEHGAPNILNVSFNYVEGESLIMALKDLAVSSGSACTSASLEPSYVLRALGLNDELAHSSIRFSLGRFTTEEEIDYTIELVRKSIGRLRDLSPLWEMYKQGVDLNSIEWAHH
B2: IscS S10N, H247P, Q248L variant (enzyme, E. coli)
chain: B1 chain with H10N
B3: IscS S10Q, H247P, Q248L variant (enzyme, E. coli)
chain: B1 chain with H10Q
B4: CyaY (E. coli homolog of frataxin) (natural protein, UniProt P27838 1-106, looked up)
chain: MNDSEFHRLADQLWLTIEERLDDWDGDSDIDCEINGGVLTITFENGSKIIINRQEPLHQVWLATKQGGYHFDLKGDEWICDRSGETFWDLLEQAATQQAGETVSFR

Series [1] concerns the molecule itself.
Series [2] concerns the molecule itself. Nature of the series: SEC. For orientation: Size exclusion chromatography separates by hydrodynamic size, large species first.
Series [3] concerns the molecule itself. Nature of the series: cell-based or functional assay.
Series [4] deals with the molecule itself. Nature of the series: SEC. This is another data set of the same source.
Series [5] addresses B3. Briefly: native MS.
In the next series the target is IscS^QPL-IscU complex (E. coli, UniProt P0A6B7 1-404; P0ACD4 1-128, S10Q | H247P | Q248L). Nature of the series: native MS.

Substitutions are numbered along the chain they refer to. Names may count otherwise. Like-named read-outs stand apart in the source and are kept apart here.

As a reminder, the Kd is the free concentration of one partner at which half of the binding sites on the other are occupied at equilibrium, for simple one-to-one binding. Higher therefore signals lower affinity. Usually stoichiometry N stands for a count of units in the complex or per binding partner.

For the molecule B1, the Kd in series [1] amounted to 8 µM. The “stoichiometry N” value in “SEC [2]” is 2. In addition, the “cysteine desulfurase activity under standard conditions (kcat)” value in series [3] turned out to be 0.025 s⁻¹.
In the same order, the values of B2 are 0.8 µM, 2 and 0.148 s⁻¹.
Take B3: the Kd in series [1] worked out at 32 µM. For the same molecule, the “stoichiometry N” value in “SEC [4]” came out at 2. In addition, the “cysteine desulfurase activity under standard conditions (kcat)” value in series [3] was 0.00367 s⁻¹.
As to B4, the binding result (in series [5]; in the series with IscS^QPL-IscU complex) was “binds” in each case.
